Data from the nanobody polyreactivity screen of Harvey et al. (2022).

Test: yeast display, Sf9 membrane polyspecificity reagent, FACS + sequencing; frameworks hold sequencing errors
Method in brief: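 A synthetic nanobody library was expressed on Saccharomyces cerevisiae BJ5465 by galactose induction for 36–48 hours. The library was stained for 1 hour at 4 °C with 10% biotinylated, detergent-solubilized Sf9 membrane reagent and enriched with streptavidin microbeads before FACS. Low and high (top ~1%) gates were set on anti-HA fluorescence for expression and streptavidin fluorescence for reagent binding, and each polyreactivity label reflects the gate of origin.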

Row | Sequence | polyreactivity (PSR sort gate)
1 | QVQLVESGAGLVQAGGSLRLSCAASGFTFFGDYAMGWYRQAPGKERELVAAIDWSGGTTYYADSVKGRFTISRDNAKNTVYLQMNSLKPEDTAVYYCARRYYYSYPPQEDDYWGQGTQVTVSS | high polyreactivity
2 | QVQHVESGGRLVQAGGSLRLSCAASGRTFPQYAMGWYRQAPGKERELVAAITSGDSTNYSDSVKGRFTISRDNAKNTVYLQMNSLKPEDTAVYYCAAVYYYSKWYTPYEDVYWGQGTQVTVSS | low polyreactivity
3 | QVQLVESGGGLVQAGGSLRLSCAASGSIFYYYAMGWYRQAPGKERELVADISISGGSTYYADSVKGRFTISRDNAKNTVYLQMNSLKPEDTAVYYCAATDYLWEPTVSNWGYTFDSWGQGTQVTVSS | low polyreactivity
4 | QVQLVESGGGLVQAGGSLRLSCAASGGIFKRYAMGWYRQAPGKERELVAAISGRGGGTYYADSVKGRFTISRDNATNTVYLQMTSLKPEDTAVYYCNARLSWSAFGYWGQGTQVTVSS | high polyreactivity
5 | QDQLVESGGGLVQAGGSLRLSCAASGRIFSVNAMGWYRQAPGKERELVAAISRRGTSTFYADSVKGRFTISRDNAKNTVYLQMNSLKPEDTAVYYCAADFYPYQYKFDYWGQGTQVTVSS | high polyreactivity
6 | QVQLVESGGGLVQAGGSLRLSCAASGSIFFWYTMGWYRQAPGKERELVATISWSDGTTYYADSVKGRFTISRDKAKNTVYLQMNSLIPEDTAVYYCAAESYPSEVSSYVSEYDYWGQGTQVTVSS | low polyreactivity
7 | QVHLVESGGGLVQAGGSHRLSCAASGLNFPPNAMGWYRQAPAKESELVASITRSGGSTYYADSVKGRFTISRDNAKNTVYLQMNSLKRDDTAVYYCAAYLDTSRYGVLYDYWGQGTQVTVSS | low polyreactivity
8 | QVQLVESGGRLVQAGGSLRLSCAASGYIFERNAMGWYRPAPGKERELVAAITDDGDDTYYADSVKGRFTISRDNEKNTVYLQLYSLKPEDTAVYYCAKDLYYGDYYYWGQGTQVTVSS | low polyreactivity
9 | QVQLVESGGGLVQAGGSLRLSSAAYGIIIGYYAMGWYRQPPGKERELVAAISWSGGSTYYADSVKGRFTISRDNAKNTVYLQMNSLKPEDTAVYYCAAVVRRKSGNDTWRYNYWGQGTQVTVSS | high polyreactivity
10 | QVQLVESGGGLVQAGGSIRLSCAASGSTFLIKAMGWYRQAPGKERELDASINRRGTSTFYADSVKARFTISRDNAKNTVYLQMNSLKPDDTAVYYCNAYPGAAIRSTGRYDYWGQGTQVTVSS | low polyreactivity
11 | QVQLVESGGGLVQAGGSLRLSCTASGIIFGTYAMGWYRQAPGKERELVAAISSSGVSTYYADSVKGRFTISRDNAKYTDYLQMNSLKPEDTAVYYCAAPLHYGYYYCGQGTQVTVSS | high polyreactivity
12 | QVQLVESGGGLVQAGGSLRLSCAASGRTFGRYAMGWYRQAPGKAREFVAAISSSGGSTSYADSVKGRFTISRDNAKNTVYLQMNSLKPEDTAVYYCNADAYRITRYGYDYWGQGTQVTVSS | high polyreactivity
13 | QVQLVESGGGLVQAGGSLRLSCAASGRIFVKYAMGWYRQAPGKERELVAAITKSGSSTYYADSVKGRFTISRDNAKNTVYLQMNSLKPEDTAVYYCAALTISRSRTGYYWGQGTQVTVSS | low polyreactivity
14 | QVQLVESGGGLVQAGGRLRLSCAASGNTFYLNAIGWYRQAPGKERELVAAITIRGDSTYYADSVKGRFTISRDNAKNTVYLQMISLKPEDTAVYSCAAPWAWNTGYRVYYGGQGTQVTVSS | high polyreactivity
15 | QVQLVESGGGLVQAGGSLRLSCAASGITFTIYAMGCNRQAPGKERELVAAITWTSDITHYADSVKGRVTISRDNAKNTDYLQMNSLKPEDTAVYYCGATTWDEYDYWGQGTQVTVSW | high polyreactivity
16 | QVQLEESGGGLVQAGGSLRLCCAASGFTFDYNAKGWYRQPPGKLRDLVAVISSSGSRTYYADSVKGRFTISRDYAKNTVYLQMNSLKPEDSAVYYWAGARIGTSDYWGQGTQVTESS | high polyreactivity
17 | QVQLVESGGGLVQAGGSLRLSCAATGRIFYRYSMGWYRQAPGKERELVAAIRYSGGTTYADSVKGRFTISRDNAKNTVYLQMNSLKPEDTAVFYCAARASLWGGFESWGQGTQVTVSS | high polyreactivity
18 | QVQLVESGGGLVQAGGSLRLSCAASGSTFTINVMGWYRQAPGKERELVAAINGGGRTNYADSVKGRFTFSRDNAKNTVYLQMNSLKPEDTAVYYCAADGLSHVRQMDYWGQGTQVTVSS | low polyreactivity
19 | QVQLVESGGGLVQAGGSLRLSCAASGRTIGPYAMGWYRQAPRKERELVAAISWSVGSTYYADSVKGRFTISRDNAKNTVYLQMNSLKPVDTAVYFCGAVYYSHVYYWGQGTQVTVSS | high polyreactivity
20 | QVQLVESGGGLVQAGGSLRLSCAASGVNAMGWYRQAPGKEREIVAAITSIGGSTYYADSVKGRFTISRDNAKNTVSLQMNSLKPEDTAVYYCNTDRGPVKVSPLYESWGQGTQVTVSS | low polyreactivity
21 | QVQLGESGGGLVQAGGSLRLSCAASGRIFRVNTMGWYRQAPGKERELVAAIRSSGTRTYYAVSVKGRFTISRDNAKNTVYLQMNSLKPEDTAVYYCAATGRRGSGYYYWGQGTQVTVSS | high polyreactivity
22 | QVQLVETGGGLVQAGGSLRLSCAATGLIFYSYPMGWYRQAPGKERELVAALNGGGGSTYYADSVKGRFTISRDNAKNTVYLQMKSLKPEDTAVYYCAADLYNRGRGSSQSYRTGYDYWGQGTQVTVSS | high polyreactivity

Row | Sequence | polyreactivity (PSR sort gate)
23 | QVQLVESGGGLVKAGGSLRLSSAASGRTFKWYAMGWSRQAPGKERELVAVITGRGGSTYYADSVKGRFTISRDNAKNTVYLQMNSLKPEDTAVYSCAARGYSLVASSLYYYWGQGTQVTVSS | high polyreactivity
24 | QVQLVESGGGLVQAGGSLRLSCAASGRTFGHNAMGWYRQAPGKEREFVAAITYSGVRTFYADSVKGRFTISRDNAKNTVYLQMNSLKPEDTSVYYCATDWRRDYDYWGQGTQVTVSS | low polyreactivity
25 | QVQLVESGGGLVQAGGSLRLSCAPSGSTFTHNALGWYRQAPGKERELVAAINNRGGTTYYADSVKGRFTISRDNAKNTVLLQMNSLKPEDIAVYYCNARYHYGRYGYWGQGTQVTVSS | high polyreactivity
26 | QVQLVESGGGLLQAGGSLSLSCAASGFTFNRNAMGWYRQAPGKERELVAAISWSGGSTYYADSVKGRFTISRDNAKNTVYLQMNSLKPEDTAVYYCAKGYRRVYSMDWGQGTQVTVSS | low polyreactivity
27 | QVQLVESGGGLDQAGGSLRLSCAASGSISLNAMGWYRQGPGKEREFVAVITWRVGDTYYADSVKGRITISRDNAKNTVYLQLNSRKPEDSAVYYCAADDLYYQGIYRGSEFDYWGQGTQVTVSS | low polyreactivity
28 | QVQLVESGGGLVQAGGSLRLTCAASGLIFRRYAMGWYRQAPGKERELVAAINTSGGSTYYADSVKGRFTISRDNAKNTVYLQMNSLKPEDSAVSYCNTVSPYKYDWGKGTQVTVSS | low polyreactivity
29 | QVQLVESGGGLVQAGGSLRLSCPASGFTFDVNAMGSYRQAPGKERELVATISSNGGSTYYADSVKGRFTISRDNAKNTVYLQMNSLKPEDTAVYYCNRGEIYFDNDDFDYWGQGTQVTVSS | low polyreactivity
30 | QVQLVDSGGGLVQAGGSLRLSCAASGSIFRGYAMGWYRPAPGKESGLVAAISRDGGSTYYADSVKGRFTISRDNAKNTVYLQMNSLKPEDTAVYYCAADYVAYATYGDGDYWGQGTQVTVSS | high polyreactivity
31 | QVQLVESGGGLVQAGGSLRLTCAASGRTFTTYAMGWYRQAPGKERELFAAISGSGGSTYYADSVKGRFTISRDNAKNTVYLQMNSLKPEGTAVYYCATAYYYHGGYYYPYDDYWGQGTQVTVSS | low polyreactivity
32 | QVQLVESGGGLVQAGGSLRLSCAASGSTFSSYTMGWYRQAPGKERELVATINSRGDNTYYADSVKGRFTISRDNAKNTVYLQMNSLKPEDTAVYYCAARSRRHDFDYWGQGTQVTVSS | high polyreactivity
33 | QVQLVESGGGLVQAGGRLRLSCAASGFTFSRNTLGWYRQAPGKERELVARITKRGGTTYYADSVKGRFTISRDNAKNTVYLQMNSLKPEDTAVYYCATVGQPSYRAPDGFNYWGQGTQVTVSS | high polyreactivity
34 | QDQLVDSGGGLVQAGGSLRLSCAASGNIFTFNAMGWYRQAPGKERELVAAISRGGRTNYADSVKGRFTISRDNAKNTVYLQMNSLKPEDTAVYYCAAEFPQRASGGRYKTEYDYWRQGTQVTVSS | low polyreactivity
35 | QVQLVESGGGLVQAGGSLRLSCAASGSTFSGYDRGWYRQEPGKESEFVATITYSGGSTYYADSVKGRFTISRDNAKNTVYLQMNSLKPEDTAVYYCAADTPDAPDYSGLYYWGQGTQVTVSS | low polyreactivity
36 | QVQLVESGGGLVQAGGSLRLSSSASGSIFDGYAMGWYRQAPGKEREFVAAIRWGDGIKYYADSVKGRFTISRDNAKNTVYLQMNSLTPEDTAVYYCAAVQHGHEPRVQDSYDYWGQGTQVTVSS | low polyreactivity
37 | QVQLVESGGGLVQAGGSLRLSCAASGRTFGYYAMGWYIQAPGKERELVAAISGSGGSTYYADSVKGRFTISRDNAKNTVYLQMNSLKPEDTEVYYCAARYIYYYAFGYNYWGQGTQVTVSS | high polyreactivity
38 | QFQLVESGGGLVQAGGSLRLSCADSGFIFFSNARPWYRHAPGKDRELVAVIDRATSTYYADSVKGRFTISRDNAKYTVYLQMNSLKPEDTAVYYCNADGEEVYDCNYFLSFKGDYWGQGTQVTVSS | low polyreactivity
39 | QVQLVESGGGLVQAGGSLRLSCAASGRIFVRNAMGWYRQAPGKERELVAGISKRGSRTYYADSVKGRFTISRDNPKNTVYLQMNSLKPEDTAVYYCAVRSYIASYRDARIRFYYWGQGTQVTVSS | high polyreactivity
40 | QVQLVESGGGLVQAGGSLRLSCAASGRTFYFYAMGWYRQAPGKERELVAAISSGASTYYADSVKGRFTISRDNAKNTVYLQMNSLKPEDTAVYYCAAEFWTQWSGYEYWGQGTQVTVSS | high polyreactivity
41 | QVQLVESGGGLDQAGGSLRLSCAASGRTNAPYAMGWYRPAPGKERELVAAISGGGSTNYADSVKGRFTISRDNAKNSVYLQMNSLKPEDTAVYSCAADQYHGVGINFRSDYDYWGQGTQVTVSS | low polyreactivity
42 | QVQLVESGGGLVQAGGSLRLSCAASGSIFGPNAMGWYRQAPGKESELVAAITLSGGSTYYADSVKGRFTISRDNAKNTVYLQMYSLKPEDTAVYYCNADLLPADAPLWVTGGDYWGQGTQVTVTS | low polyreactivity
43 | QVQLVESGGGLVQAGGSLRLSCAASGRTFISYAMGWYRQAPGKERELVAAIDFSDGSTYYADSVKGRFTISRDNAKNTVYLQMNSLKPEDTAVYYCAADDPGLGYWSLTWYDYWGQGTQVTVSS | high polyreactivity
